In patent US20190016816A1 (APTEVO RESEARCH AND DEVELOPMENT, published 2019):

Assays:
FcγRIIb (CD32b) = molecular target: T1, FcγRIIb (CD32b) (UniProt P31994 43-310, limits assumed); test: flow cytometry, CHO cells stably expressing CD32b, fluorescent anti-human IgG secondary, MFI (mean)
T1 construct: whole, on cells
T1 sequence (looked up): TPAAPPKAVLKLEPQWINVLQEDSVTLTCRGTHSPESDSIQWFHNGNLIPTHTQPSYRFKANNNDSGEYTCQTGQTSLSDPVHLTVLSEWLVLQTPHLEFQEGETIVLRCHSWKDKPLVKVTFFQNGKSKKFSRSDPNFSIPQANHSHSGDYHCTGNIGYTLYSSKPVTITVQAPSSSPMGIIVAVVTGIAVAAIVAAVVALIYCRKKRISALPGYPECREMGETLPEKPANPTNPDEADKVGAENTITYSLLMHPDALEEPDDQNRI
Source text: ALG.APV-210 contains mutations introduced to prevent interaction with Fcγ receptors (FcγR) that could lead to FcγR-mediated T-cell activation or ADCC, ADCP, CDC etc. Binding of ALG.APV-210 was therefore tested on CHO cell transfectants stably expressing the following FcγR: FcγRI (CD64), FcγRIIa (CD32a His131), FcγRIIb (CD32b), FcγRIIIa (CD16a Val158 and CD16a Phe158), and FcγRIIIb (CD16b). Untransfected CHO cells were used as negative control. A control human IgG1 molecule was used as a positive control. Different concentrations of ALG.APV-210 or control IgG1 were incubated with the FcγR-expressing cell lines, washed, and labeled with a secondary anti-human IgG reagent. Binding of ALG.APV-210 and the control IgG1 was detected by flow cytometry.

human 5T4 on cells [1] = molecular target: T2, human 5T4 on cells (human, UniProt Q13641 32-420); test: cell-based or functional assay
T2 sequence: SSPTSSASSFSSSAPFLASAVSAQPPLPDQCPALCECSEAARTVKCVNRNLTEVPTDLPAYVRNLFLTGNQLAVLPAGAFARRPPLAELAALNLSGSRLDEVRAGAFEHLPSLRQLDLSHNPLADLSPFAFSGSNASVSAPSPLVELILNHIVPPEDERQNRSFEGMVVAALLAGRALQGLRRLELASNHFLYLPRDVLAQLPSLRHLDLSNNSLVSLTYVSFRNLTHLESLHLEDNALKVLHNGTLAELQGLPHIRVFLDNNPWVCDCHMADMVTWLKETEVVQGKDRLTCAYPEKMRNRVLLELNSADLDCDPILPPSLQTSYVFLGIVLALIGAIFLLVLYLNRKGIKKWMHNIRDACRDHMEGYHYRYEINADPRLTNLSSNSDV

human CD137 on cells = molecular target: T3, human CD137 on cells (human, UniProt Q07011 24-255); test: flow cytometry, percentage of CD8 T cells (gated from CD3-stimulated human PBMC) bound by the biotinylated antibody, exp 1, n=3 donors
T3 construct: also called 4-1BB; TNFRSF9 (CHO-K1/human CD137 cells)
T3 sequence (Q07011 24-255 limits assumed): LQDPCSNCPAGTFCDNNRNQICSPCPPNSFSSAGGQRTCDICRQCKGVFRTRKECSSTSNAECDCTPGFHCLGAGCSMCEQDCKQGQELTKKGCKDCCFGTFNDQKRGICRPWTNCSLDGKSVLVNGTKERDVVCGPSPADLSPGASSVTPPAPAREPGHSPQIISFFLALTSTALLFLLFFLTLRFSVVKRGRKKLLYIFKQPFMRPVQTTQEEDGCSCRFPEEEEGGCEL
Description: Following 48 h of incubation with or without CD3, human and cynomolgus PBMC were harvested, pooled, recounted and diluted in FACS buffer (PBS+0.5% BSA, 0.05% NaN₃) to a concentration of 5×10⁶ cells/mL. 50 μL (0.25×10⁶ cells) of cell solution was added to a 96-well FACS staining plate (Falcon #351190). Following 10 min of Fc-blocking in RT using Beriglobin (hIgG, 200 μg/mL), cells were washed in FACS buffer and then incubated for 1 h in 4° C. with 100 μL of the biotinylated ALG.APV-210 or negative control. The antibodies were added in a serial dilution starting either at 5 μg/mL titrating down in a 12 step ⅓ dilution down to […] (exp 1) or 1 μg/mL titrating down in a 12 step ½ dilution down to 0.0005 μg/mL (exp 2). […] Cells were analysed for ALG.APV-210 binding using flow cytometry by gating on viable, single cells expressing CD3 and CD8. MFI values (FMO subtracted) from 2 independent experiments as well as normalized pooled data from 2 experiments and EC₅₀-values were determined and plotted using GraphPad Prism 7, non-linear regression log (agonist) vs. normalized response—variable slope, n=6 donors/group.

human 5T4 on cells [2] = molecular target: T2, human 5T4 on cells; test: flow cytometry, JAR cells, streptavidin-PE, normalized MFI of 2 pooled experiments
Description: (§1) Prior to the FACS staining, all cell lines were characterized for their 5T4 expression levels using a receptor density kit (Quantum Simply Cellular, anti-human IgG, Bangs Laboratories, Inc). Adherent cell lines were cultured according to their supplier's instructions and were harvested from their cell culture flasks using Trypsin/EDTA, counted in R10 medium in a Burker chamber, and diluted in FACS buffer (PBS+0.5% BSA, 0.05% NaN₃) to a concentration of 4×10⁶ cells/mL. 50 μL (0.20×10⁶) of cell solution was added to a 96-well FACS staining plate (Falcon #351190). Cells were incubated for 20 min in 4° C. with 50 μL of the biotinylated ALG.APV-210 (2× final concentration). The antibodies were added in a serial dilution starting at 20 μg/mL titrating down in a 12 step ½ dilution down to 0.010 μg/mL. Following 2× washing with FACS buffer, cells were incubated for 30 min in 4° C. with 100 μL of a secondary antibody (streptavidin-PE, BD #554061, diluted 1/500). […] Cells were analysed for ALG.APV-210 binding using flow cytometry (FACSVerse) by gating on single cells. MFI values (secondary antibody only subtracted) from 1 out of 2 independent experiments, as well as normalized data and EC₅₀-values of pooled data from 2 experiments were determined and plotted using GraphPad Prism 7, non-linear regression log (agonist) vs. normalized response—variable slope.

human 5T4 on cells [3] = molecular target: T2, human 5T4 on cells; test: flow cytometry, CT26-hu5T4^low cells, streptavidin-PE, normalized MFI of 2 pooled experiments
Description: as §1

human 5T4 on cells [4] = molecular target: T2, human 5T4 on cells; test: flow cytometry, JEG cells, streptavidin-PE, normalized MFI of 2 pooled experiments
Description: as §1

Binder	binding result (FcγRIIb (CD32b))	maximal IFNγ release with CT26-h5T4^low cells relative to CT26-h5T4^high cells (human 5T4 on cells [1]) [%]	maximal IFNγ release with CT26-wt cells (no 5T4) relative to CT26-h5T4^high cells (human 5T4 on cells [1]) [%]	EC50 (read off the curve) (human CD137 on cells) [nM]	EC50 (human 5T4 on cells [2]) [nM]	EC50 (human 5T4 on cells [3]) [nM]	EC50 (human 5T4 on cells [4]) [nM]
ALG.APV-210 (bispecific antibody, Optimized ADAPTIR scFv-Fc-scFv homodimer with stabilizing disulfide in the 1210 scFv; also called 5T4-CD137 bispecific antibody) EVQLLESGGGLVQPGGSLRLSCAASGFTFSHGSMYWVRQAPGKGLEWVSSISSGSGSTYYADSVKGRFTISHDNSKNTLYLQMNSLRAEDTAVYYCARSSYYGSYYSIDYWGQGTLVTVSSGGGGSGGGGSGGGGSGGGGSDIQMTQSPSSLSASVGDRVTITCRASQSISSYLNWYQQKPGKAPKLLIYAASSLQSGVPSRFSGSGSGTDFTLTISSLQPEDFATYYCQQYYDNLPTFGQGTKLEIKEPKSSDKTHTCPPCPAPEAAGAPSVFLFPPKPKDTLMISRTPEVTCVVVDVSHEDPEVKFNWYVDGVEVHNAKTKPREEQYNSTYRVVSVLTVLHQDWLNGKEYKCAVSNKALPAPIEKTISKAKGQPREPQVYTLPPSRDELTKNQVSLTCLVKGFYPSDIAVEWESNGQPENNYKTTPPVLDSDGSFFLYSKLTVDKSRWQQGNVFSCSVMHEALHNHYTQKSLSLSPGSGGGGSGGGGSGGGGSPSEVQLLESGGGLVQPGGSLRLSCAASGFTFSSYAMSWVRQAPGKCLEWVSAISGSGGSTYYADSVKGRFTISRDNSKNTLYLQMNSLRAEDTAVYYCARYYGGYYSAWMDYWGQGTLVTVSSGGGGSGGGGSGGGGSGGGGSDIQMTQSPSSLSASVGDRVTITCRASQSISSFLNWYQQKPGKAPKLLIYAASSLQSGVPSRFSGSGSGTDFTLTISSLQPEDSATYYCQQTYGYLHTFGCGTKLEIKR	no binding (tested: 1000 nM)	82	7				
biotinylated ALG.APV-210 (bispecific antibody, also called ALG.APV-210 (biotinylated for FACS detection)) EVQLLESGGGLVQPGGSLRLSCAASGFTFSHGSMYWVRQAPGKGLEWVSSISSGSGSTYYADSVKGRFTISHDNSKNTLYLQMNSLRAEDTAVYYCARSSYYGSYYSIDYWGQGTLVTVSSGGGGSGGGGSGGGGSGGGGSDIQMTQSPSSLSASVGDRVTITCRASQSISSYLNWYQQKPGKAPKLLIYAASSLQSGVPSRFSGSGSGTDFTLTISSLQPEDFATYYCQQYYDNLPTFGQGTKLEIKEPKSSDKTHTCPPCPAPEAAGAPSVFLFPPKPKDTLMISRTPEVTCVVVDVSHEDPEVKFNWYVDGVEVHNAKTKPREEQYNSTYRVVSVLTVLHQDWLNGKEYKCAVSNKALPAPIEKTISKAKGQPREPQVYTLPPSRDELTKNQVSLTCLVKGFYPSDIAVEWESNGQPENNYKTTPPVLDSDGSFFLYSKLTVDKSRWQQGNVFSCSVMHEALHNHYTQKSLSLSPGSGGGGSGGGGSGGGGSPSEVQLLESGGGLVQPGGSLRLSCAASGFTFSSYAMSWVRQAPGKCLEWVSAISGSGGSTYYADSVKGRFTISRDNSKNTLYLQMNSLRAEDTAVYYCARYYGGYYSAWMDYWGQGTLVTVSSGGGGSGGGGSGGGGSGGGGSDIQMTQSPSSLSASVGDRVTITCRASQSISSFLNWYQQKPGKAPKLLIYAASSLQSGVPSRFSGSGSGTDFTLTISSLQPEDSATYYCQQTYGYLHTFGCGTKLEIKR				~0.02	9	11	8
